In paper PMC5903867, “Hexameric and pentameric complexes of the ExbBD energizer in the Ton system” (eLife, 2018):

B1: ExbB (natural protein, Escherichia coli, UniProt P0ABU7 1-244, looked up)
chain: MGNNLMQTDLSVWGMYQHADIVVKCVMIGLILASVVTWAIFFSKSVEFFNQKRRLKREQQLLAEARSLNQANDIAADFGSKSLSLHLLNEAQNELELSEGSDDNEGIKERTSFRLERRVAAVGRQMGRGNGYLATIGAISPFVGLFGTVWGIMNSFIGIAQTQTTNLAVVAPGIAEALLATAIGLVAAIPAVVIYNVFARQIGGFKAMLGDVAAQVLLLQSRDLDLEASAAAHPVRVAQKLRAG
notes: ExbB, Escherichia coli, full length; inner membrane protein of the Ton system; residues about 10-234 resolved in the crystal; Forms hexamers and pentamers depending on pH, so copies is left open; also called ExbB hexamer; ExbB pentamer; source: E. coli BL21 (DE3) Gold, pET-21b, co-expressed with ExbD, purified from the membrane fraction in detergent (IMAC, SEC); not shown: His6, C-terminal, kept
B2: ExbD (natural protein, Escherichia coli, UniProt P0ABV2 1-141, looked up)
chain: MAMHLNENLDDNGEMHDINVTPFIDVMLVLLIIFMVAAPLATVDVKVNLPASTSTPQPRPEKPVYLSVKADNSMFIGNDPVTDETMITALNALTEGKKDTTIFFRADKTVDYETLMKVMDTLHQAGYLKIGLVGEETAKAK
notes: ExbD, Escherichia coli, full length, no tag; only the TM helix is modelled in the cryo-EM maps; The PDB entries hold only the TM helix (ExbDTM) of ExbD; also called ExbDTM (its TM helix as modelled); ExbD trimer; source: E. coli BL21 (DE3) Gold, pET-21b, co-expressed with ExbB-His6, co-purified in detergent (IMAC, SEC)

Key:
[1] = target: the molecule itself; experiment: crystal structure; ExbBD complex purified in C8E4 or C10E5; crystals grown at pH 9.0 (0.1 M glycine, 0.15 M CaCl2, ~40% PEG 350 MME), 20°C; space group P2_(1), 2.8 Å, molecular replacement
[2] = target: the molecule itself; experiment: cryo-EM structure; single particle, frozen-hydrated ExbBD complex in LMNG, 10 mM Na-citrate pH 5.4; reference-free 2D classification and 3D reconstruction of the pentameric complex at 7.1 Å, 5-fold symmetry enforced
[3] = target: the molecule itself; experiment: negative-stain EM of 2D crystals; purified ExbBD complex (C8E4) reconstituted with E. coli total lipid extract by dialysis, 25 mM Na-citrate pH 5.4, 150 mM NaCl, 4°C; Fourier filtering of crystal patches
[4] = target: the molecule itself; experiment: cryo-EM structure; single particle, frozen-hydrated ExbBD complex in LMNG, 10 mM Tris-HCl pH 8.0; reference-free 2D classification and 3D reconstruction of the hexameric complex at 6.7 Å, no symmetry applied
[5] = target: B1; experiment: cryo-EM structure; single particle, frozen-hydrated ExbBD complex in LMNG, 10 mM Na-citrate pH 5.4; reference-free 2D classification and 3D reconstruction of the pentameric complex at 7.1 Å, 5-fold symmetry enforced; settings: both partners purified
[6] = target: B1; experiment: cryo-EM structure; single particle, frozen-hydrated ExbBD complex in LMNG, 10 mM Tris-HCl pH 8.0; reference-free 2D classification and 3D reconstruction of the hexameric complex at 6.7 Å, no symmetry applied; settings: both partners purified

| stoichiometry N [5] | stoichiometry N [6] | Binder | stoichiometry N [1] | ratio of pentamer to hexamer [2] | stoichiometry N [3] | ratio of hexamer to pentamer (printed as pentamer:hexamer) [4] | stoichiometry N [4] |
| --- | --- | --- | --- | --- | --- | --- | --- |
|  |  | B1 | 6 subunits | 3 pentamer per hexamer | 5 subunits | 3 hexamer per pentamer |  |
| 1 ExbD per ExbB pentamer | 3 ExbD per ExbB hexamer | B2 |  |  |  |  | 3 subunits |
